Test results from PMC10476280.
Where “and” joins values, the source holds several entries; their conditions need not be identical. Equal values may be shown once.

Assays:
[1] = test system: Cse4(CENP-A)-GFP (Saccharomyces cerevisiae (W303, SBY3 derivative)); experiment: single-molecule TIRFM endpoint colocalization; conditions: yeast whole cell extract, single-molecule TIRFM on surface-tethered DNA; buffer, salt, pH and temperature not given in the material
[2] = test system: Ndc10-mCherry (CBF3 component) (Saccharomyces cerevisiae (W303, SBY3 derivative)); experiment: single-molecule TIRFM endpoint colocalization; conditions: WT extract; yeast whole cell extract, single-molecule TIRFM on surface-tethered DNA; buffer, salt, pH and temperature not given in the material
[3] = test system: histone H3 (Saccharomyces cerevisiae (W303, SBY3 derivative)); experiment: single-molecule TIRFM endpoint colocalization; conditions: yeast whole cell extract, single-molecule TIRFM on surface-tethered DNA, buffer, salt, pH and temperature not given in the material
[4] = test system: Cse4(CENP-A)-GFP (Saccharomyces cerevisiae (W303, SBY3 derivative)); experiment: single-molecule TIRFM endpoint colocalization; conditions: yeast whole cell extract, single-molecule TIRFM on surface-tethered DNA, buffer, salt, pH and temperature not given in the material
[5] = test system: Scm3(HJURP) (Saccharomyces cerevisiae (W303, SBY3 derivative)); experiment: single-molecule TIRFM residence assay; conditions: yeast whole cell extract, single-molecule TIRFM on surface-tethered DNA; buffer, salt, pH and temperature not given in the material

Row | Substance | binding signal (% DNA colocalized) ([3]; low level) | binding signal (% DNA colocalized) ([4]; WT extract) | binding signal (% DNA colocalized) [4] | further results
1 | CEN3 DNA (WT, ~750 bp) | 5.5 | 50 | 19.3 | binding signal (% DNA colocalized) [1]: 5 and 8; binding signal (% DNA colocalized) [2]: 70; binding signal (residences per DNA (45 min)) [5]: 0.57
2 | CEN7 DNA |  | 18 |  | 
3 | CEN9 DNA |  | 22 |  | 
4 | Widom-601 DNA |  |  |  | binding signal (% DNA colocalized) [3]: 7.1
5 | Widom-601-CDEIII hybrid | 4.1 |  | 3.1 | 
6 | alpha-sat CEN DNA |  |  | 1.7 | 
